Reference: PMC7108717, “Dynamics in the murine norovirus capsid revealed by high-resolution cryo-EM” (PLoS Biology, 2020)

Target: the molecule itself
Experiment: cryo-EM structure; purified virions in EM buffer (10 mM HEPES pH 7.6, 200 mM NaCl, 5 mM MgCl2, 1 mM KCl, 1 mM CaCl2), icosahedral reconstruction and focussed classification of P domain dimers

B1: murine norovirus (MNV-1 strain CW1P3) major structural protein VP1, wild type (natural protein)
chain: MRMSDGAAPKANGSEASGQDLVPAAVEQAVPIQPVAGAALAAPAAGQINQIDPWIFQNFVQCPLGEFSISPRNTPGEILFDLALGPGLNPYLAHLSAMYTGWVGNMEVQLVLAGNAFTAGKVVVALVPPYFPKGSLTTAQITCFPHVMCDVRTLEPIQLPLLDVRRVLWHATQDQEESMRLVCMLYTPLRTNSPGDESFVVSGRLLSKPAADFNFVYLTPPIERTIYRMVDLPVIQPRLCTHARWPAPVYGLLVDPSLPSNPQWQNGRVHVDGTLLGTTPISGSWVSCFAAEAAYKFQSGTGEVATFTLIEQDGSAYVPGDRAAPLGYPDFSGQLEIEVQTETTKTGDKLKVTTFEMILGPTTNADQAPYQGRVFASVTAAASLDLVDGRVRAVPRSIYGFQDTIPEYNDGLLVPLAPPIGPFLPGEVLLRFRTYMRQIDTADAAAEAIDCALPQEFVSWFASNAFTVQSEALLLRYRNTLTGQLLFECKLYNEGYIALSYSGSGPLTFPTDGIFEVVSWVPRLYQLASVGSLATGRMLKQ
notes: major capsid protein VP1 (ORF2) of murine norovirus MNV-1 strain CW1P3, as it stands in infectious virions; N-terminal region, S domain, P domain (P1, P2); modelled from D20 (A-type), S17 (B-type), V30 (C-type); Capsid: 90 dimers (AB and CC) in T = 3 symmetry; also called wtMNV VP1; MNV VP1; copies: 180
- stoichiometry N: 180 VP1 chains in the capsid
